Experiments:
Nalm-6 cells = assay: 48 hour cytotoxicity assay, T cells co-cultured with Nalm-6 NucRed cells, Incucyte (Example 7; Table 21); format: cell-based
Protocol: For cytotoxicity assays, T cells were thawed and co-cultured with Nalm-6 cells (stably expressing NucRed®) at different T cells to Nalm-6 cell culture ratios. Target cell viability was determined by measuring cellular fluorescence over time using an Incucyte assay and the results are shown in Table 21.

CD19+ Nalm6 tumors [1] = assay: Kaplan-Meier animal survival, Nalm6-Luc NSG model (Example 9; Table 29); format: in vivo, NSG mice
Protocol: (§1) The study was designed to determine if membrane bound IL12 (mbIL12) expressed on CAR-T cells via a CD8 TM domain and CD8 Hinge Region promotes CAR T cell expansion in cis, promotes non-CAR-T cell expansion in trans, and/or increases in vivo CAR T cell efficacy against CD19+ Nalm6 tumors. To test in vivo anti-tumor activity, experiments were performed in NSG mice. Nalm6 cells were transfected with Redifect Red-Fluc (Perkin Elmer) under selection using Puromycin for ˜2 months to generate a line that stably expresses the luciferase reporter; thereafter named Nalm6-Luc. Ten days before tumor implantation, Nalm6-Luc cells were thawed and cultured in puromycin-containing media. On day 0, cells were counted, resuspended in PBS and injected into NSG mice via tail vein. On day 6, mice were imaged for bioluminescent intensity (BLI) and sorted into groups based on their tumor size ensuring that all groups had the same sized tumors. Human T cells were transduced with one of the following constructs as shown in the study design in Table 27:
Percent survival was also measured for each group during the course of the experiment and the following numbers were obtained as shown in Table 29: […]

[2] = Plasma IL12 and IFNgamma cytokine levels, Nalm6-Luc NSG model (Example 9; Table 31); format: in vivo, NSG mice; conditions: day 14 post T cell transfer
Protocol: as §1
Thus, anti-tumor efficacy (Table 28) appears to correlate with plasma cytokine levels.

[3] = tested on: CAR+ T cells and GFP+ T cells; assay: CAR-T and GFP+ T cell expansion in peripheral blood by flow cytometry (Example 9; Table 32); format: in vivo, NSG mice; conditions: cell numbers in 50 uL blood
Protocol: (§2) Next, holding total CAR+ T cell dose constant at either 300,000 or 1 million cells per animal, transduced T cells were intravenously infused into mice on day 7. Tumors were monitored in mice using BLI and the mean of the Total Flux (photons/second) was calculated for each group as an indicator of tumor burden (Table 28). In order to track the trans effect of IL12 expressing CART cells on T cells that lack expression of IL12, 5 million GFP+ T cells (negative for IL12) were co-infused with the IL12-expressing CAR+ T cells, and peripheral blood draws taken over time to evaluate the effect of IL12 on phenotypic changes in GFP+ T cells by flow cytometry analysis.
Thus, anti-tumor efficacy (Table 28) appears to correlate with CAR-T cell expansion.

CD19+ Nalm6 tumors [4] = assay: Nalm6-Luc tumor burden by BLI, mean total flux, NSG mice, B7.1 TM mbIL12 constructs (Example 10; Table 34); format: in vivo
Protocol: as §1, with “To” for “The study was designed to determine if membrane bound IL12 (mbIL12) expressed on CAR-T cells via a CD8 TM domain and CD8 Hinge Region promotes CAR T cell expansion in cis, promotes non-CAR-T cell expansion in trans, and/or increases in vivo CAR T cell efficacy against CD19+ Nalm6 tumors. To”, “ensure” for “ensuring”, “33:” for “27:”
as §2, with “at” for “at either 300,000 or”, “34).” for “28).”, “on” for “on T cells”, “10” for “5”

CD19+ Nalm6 tumors [5] = assay: Kaplan-Meier animal survival (Example 10; Table 35); format: in vivo, NSG mice
Protocol: as §1, with “To” for “The study was designed to determine if membrane bound IL12 (mbIL12) expressed on CAR-T cells via a CD8 TM domain and CD8 Hinge Region promotes CAR T cell expansion in cis, promotes non-CAR-T cell expansion in trans, and/or increases in vivo CAR T cell efficacy against CD19+ Nalm6 tumors. To”, “ensure” for “ensuring”, “33:” for “27:”
Percent survival was also measured for each group during the course of the experiment and the following numbers were obtained as shown in Table 35: […]

[6] = tested on: CAR+ T cells and GFP+ T cells; assay: CAR-T and GFP+ T cell expansion in peripheral blood by flow cytometry (Example 10; Table 37); format: in vivo, NSG mice; design: unit not given here; conditions: day 14 post T cell transfer, 1 million CAR+ T cells
Protocol: as §2, with “at” for “at either 300,000 or”, “34).” for “28).”, “on” for “on T cells”, “10” for “5”
Thus, anti-tumor efficacy (Table 34) appears to correlate with CAR-T cell expansion.

B1: OT-001356: CD19 CAR; stop; IRES; secreted IL12 (p40 23-328; (G4S)3; p35 57-253); nucleic acid SEQ ID NO: 482 (protein)
chain: IWELKKDVYVVELDWYPDAPGEMVVLTCDTPEEDGITWTLDQSSEVLGSGKTLTIQVKEFGDAGQYTCHKGGEVLSHSLLLLHKKEDGIWSTDILKDQKEPKNKTFLRCEAKNYSGRFTCWWLTTISTDLTFSVKSSRGSSDPQGVTCGAATLSAERVRGDNKEYEYSVECQEDSACPAAEESLPIEVMVDAVHKLKYENYTSSFFIRDIIKPDPPKNLQLKPLKNSRQVEVSWEYPDTWSTPHSYFSLTFCVQVQGKSKREKKDRVFTDKTSATVICRKNASISVRAQDRYYSSSWSEWASVPCSGGGGSGGGGSGGGGSRNLPVATPDPGMFPCLHHSQNLLRAVSNMLQKARQTLEFYPCTSEEIDHEDITKDKTSTVEACLPLELTKNESCLNSRETSFITNGSCLASRKTSFMMALCLSSIYEDLKMYQVEFKTMNAKLLMDPKRQIFLDQNMLAVIDELMQALNFNSETVPQKSSLEEPDFYKTKIKLCILLHAFRIRAVTIDRVMSYLNASGS
Nalm-6 cells; E:T 3:1, 48 hour
  Average Total Nalm6-NucRed Area after 48 hour at E:T ratio of 3:1: 33,079
Nalm-6 cells; E:T 10:1, 48 hour
  Average Total Nalm6-NucRed Area after 48 hour at E:T ratio of 10:1: 32,236
CD19+ Nalm6 tumors [1]; day 0 post tumor implant
  Proportion of survival post tumor implant: 100%
CD19+ Nalm6 tumors [1]; day 41 post tumor implant
  Proportion of survival post tumor implant: 50.0%
CD19+ Nalm6 tumors [1]; day 43 post tumor implant
  Proportion of survival post tumor implant: 50.0%
[2]; cell dose 0.3 ×10e6
  Day 14 Plasma IFNgamma Levels: 17,565 pg/mL
  Day 14 Plasma IL 12 Levels: 1,455 pg/mL
[2]; cell dose 1 ×10e6
  Day 14 Plasma IFNgamma Levels: 22,154 pg/mL
  Day 14 Plasma IL 12 Levels: 3,853 pg/mL
[3]; cell dose 0.3 ×10e6
  Cis Effect: Numbers of CAR+ Cells on Day 14: 1402.64
  Trans Effect: Numbers of GFP+ Cells on Day 14: 400.00
[3]; cell dose 1 ×10e6
  Cis Effect: Numbers of CAR+ Cells on Day 14: 3789.89
  Trans Effect: Numbers of GFP+ Cells on Day 14: 332.75
CD19+ Nalm6 tumors [4]; day 6 post tumor implant, day −1 post T cell transfer (before infusion), 1 million CAR+ T cells
  Mean Total Flux (Nalm-6 Tumor Burdon): 2667500 photons/second
CD19+ Nalm6 tumors [4]; day 15 post tumor implant, day 8 post T cell transfer
  Mean Total Flux (Nalm-6 Tumor Burdon): 72220000 photons/second
CD19+ Nalm6 tumors [4]; day 19 post tumor implant, day 12 post T cell transfer
  Mean Total Flux (Nalm-6 Tumor Burdon): 3141750 photons/second
CD19+ Nalm6 tumors [4]; day 22 post tumor implant, day 15 post T cell transfer
  Mean Total Flux (Nalm-6 Tumor Burdon): 1001125 photons/second
CD19+ Nalm6 tumors [4]; day 27 post tumor implant, day 20 post T cell transfer
  Mean Total Flux (Nalm-6 Tumor Burdon): 991750 photons/second
CD19+ Nalm6 tumors [4]; day 30 post tumor implant, day 23 post T cell transfer
  Mean Total Flux (Nalm-6 Tumor Burdon): 797000 photons/second
CD19+ Nalm6 tumors [4]; day 33 post tumor implant, day 26 post T cell transfer
  Mean Total Flux (Nalm-6 Tumor Burdon): 887000 photons/second
CD19+ Nalm6 tumors [4]; day 36 post tumor implant, day 29 post T cell transfer
  Mean Total Flux (Nalm-6 Tumor Burdon): 627875 photons/second
CD19+ Nalm6 tumors [4]; day 41 post tumor implant, day 34 post T cell transfer
  Mean Total Flux (Nalm-6 Tumor Burdon): 697500 photons/second
CD19+ Nalm6 tumors [5]; day 0 post tumor implant
  Kaplan-Meier Analysis of Animal Survival (percent survival): 100%
CD19+ Nalm6 tumors [5]; day 41 post tumor implant
  Kaplan-Meier Analysis of Animal Survival (percent survival): 100%
[6]
  Cis Effect: Numbers of CAR+ Cells on Day 14: 1777
  Trans Effect: Numbers of GFP+ Cells on Day 14: 99

From patent publication US12227551B2, “Membrane bound IL12 compositions and methods for tunable regulation” (Obsidian Therapeutics, Inc., priority 2018, dated 2025)
